In assay [1] the target is T1, rat NTNRα-IgG (soluble rNTNRα, product of pRK-rNTNRα-IgG) (rat).
T1 construct: Used as conditioned medium of transiently transfected 293 cells; also called soluble rNTNRα protein; rat fusion protein
As to the kind of experiment: equilibrium binding of 125I-NTN with cold ligand to soluble NTNRα-IgG, protein A Sepharose precipitation, IGOR fit; Scatchard inset of Fig. 6C.

Assay [2] addresses T2, human NTNRα-IgG (soluble human NTNRα, product of pRK-hNTNRα-IgG) (human).
T2 construct: Used as conditioned medium of transiently transfected 293 cells; also called recombinant soluble human NTNRα; hNTNRα fusion
As to the kind of experiment: equilibrium binding of 125I-NTN with cold ligand to soluble NTNRα-IgG, protein A Sepharose precipitation, IGOR fit (data not shown).

For assay [3], the target named is T1, rat NTNRα-IgG (soluble rNTNRα, product …). As to the kind of experiment: equilibrium binding of 125I-NTN with cold ligand to soluble NTNRα-IgG, protein A Sepharose precipitation, IGOR fit.
In assay [4] the target is T3, recombinant soluble rat GDNFRα (rat, UniProt Q62997 25-430, limits assumed).
T3 construct: also called rGDNFRα; GFR-alpha-1
T3 sequence (looked up): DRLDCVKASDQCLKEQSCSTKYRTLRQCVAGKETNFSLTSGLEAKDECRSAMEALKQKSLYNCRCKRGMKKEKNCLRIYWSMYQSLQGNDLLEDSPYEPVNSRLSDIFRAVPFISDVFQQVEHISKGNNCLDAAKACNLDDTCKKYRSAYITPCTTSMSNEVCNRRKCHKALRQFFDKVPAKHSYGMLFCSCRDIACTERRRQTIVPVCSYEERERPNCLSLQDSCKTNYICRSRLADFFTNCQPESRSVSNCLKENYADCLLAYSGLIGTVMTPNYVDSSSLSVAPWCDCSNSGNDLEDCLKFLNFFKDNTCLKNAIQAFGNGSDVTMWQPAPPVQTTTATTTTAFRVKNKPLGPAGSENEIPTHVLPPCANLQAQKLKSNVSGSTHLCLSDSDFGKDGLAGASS
As to the kind of experiment: displaceable equilibrium binding of 125I-rGDNF to recombinant soluble rGDNFRα; Scatchard inset of Fig. 6B.

Assay [5] has as its target T1, rat NTNRα-IgG (soluble rNTNRα, product …). As to the kind of experiment: binding experiments with biotinylated ligand, format not described.

B1: mouse Neurturin (ligand, UniProt P97463 96-195, looked up)
chain: PGARPCGLRELEVRVSELGLGYTSDETVLFRYCAGACEAAIRIYDLGLRRLRQRRRVRRERARAHPCCRPTAYEDEVSFLDVHSRYHTLQELSARECACV
modifications: 125I-labelled in the direct binding assays; unlabelled as cold competitor
notes: also called mouse NTN; mNTN
As for B1, the Kd in assay [1] and in assay [2] was about 0.01 nM throughout.

B2: human Neurturin (ligand, UniProt Q99748 96-197, looked up)
chain: ARLGARPCGLRELEVRVSELGLGYASDETVLFRYCAGACEAAARVYDLGLRRLRQRRRLRRERVRAQPCCRPTAYEDEVSFLDAHSRYHTVHELSARECACV
modifications: 125I-labelled in the direct binding assays; unlabelled as cold competitor
notes: also called human NTN; hNTN
As to B2, the Kd in assay [3] and in assay [2] was about 0.01 nM in each case.

B3: rat GDNF (ligand, UniProt Q07731 78-211, looked up)
chain: SPDKQAAALPRRERNRQAAAASPENSRGKGRRGQRGKNRGCVLTAIHLNVTDLGLGYETKEELIFRYCSGSCEAAETMYDKILKNLSRSRRLTSDKVGQACCRPVAFDDDLSFLDDSLVYHILRKHSAKRCGCI
modifications: 125I: iodinated either on tyrosine by the Bolton Hunter method or on lysine using lactoperoxidase
notes: also called rGDNF
As to B3, the Kd in assay [4] stood at 3 pM.

B4: GDNF, species not stated at these places (ligand)
chain: SPDKQAAALPRRERNRQAAAASPENSRGKGRRGQRGKNRGCVLTAIHLNVTDLGLGYETKEELIFRYCSGSCEAAETMYDKILKNLSRSRRLTSDKVGQACCRPVAFDDDLSFLDDSLVYHILRKHSAKRCGCI
modifications: Biotinylated in the paragraph 22 experiment; natural form is a disulfide-linked homodimer
notes: also called biotinylated GDNF
Consider B4, for which, in assay [5], the dissociation constant Kd is over 1 mM.
